This passage reports block by dihydrostreptomycin (DHS) of the mechanically activated current in N2A cells co-transfected with Pz1 and Tmc1, against Pz1 alone and FRET efficiency (E) results from publication PMC10371147.

In experiment [1] the target is mTmc1 tagged with mRuby3 (mTmc1-mRuby3) (mouse) (UniProt Q8R4P5).
The target is the same in experiment [2]. Description: FRET or BRET; acceptor photobleaching in living N2A cells co-transfected with mPz1-mClover3 (donor) and mTmc1-mRuby3 (acceptor), Tyrode's solution pH 7.4, region of the surface membrane. (BRET reads energy transfer from a luciferase to a nearby fluorophore.)

Chain of mTmc1 tagged with mRuby3 (mTmc1-mRuby3) (mouse) (Q8R4P5 whole entry): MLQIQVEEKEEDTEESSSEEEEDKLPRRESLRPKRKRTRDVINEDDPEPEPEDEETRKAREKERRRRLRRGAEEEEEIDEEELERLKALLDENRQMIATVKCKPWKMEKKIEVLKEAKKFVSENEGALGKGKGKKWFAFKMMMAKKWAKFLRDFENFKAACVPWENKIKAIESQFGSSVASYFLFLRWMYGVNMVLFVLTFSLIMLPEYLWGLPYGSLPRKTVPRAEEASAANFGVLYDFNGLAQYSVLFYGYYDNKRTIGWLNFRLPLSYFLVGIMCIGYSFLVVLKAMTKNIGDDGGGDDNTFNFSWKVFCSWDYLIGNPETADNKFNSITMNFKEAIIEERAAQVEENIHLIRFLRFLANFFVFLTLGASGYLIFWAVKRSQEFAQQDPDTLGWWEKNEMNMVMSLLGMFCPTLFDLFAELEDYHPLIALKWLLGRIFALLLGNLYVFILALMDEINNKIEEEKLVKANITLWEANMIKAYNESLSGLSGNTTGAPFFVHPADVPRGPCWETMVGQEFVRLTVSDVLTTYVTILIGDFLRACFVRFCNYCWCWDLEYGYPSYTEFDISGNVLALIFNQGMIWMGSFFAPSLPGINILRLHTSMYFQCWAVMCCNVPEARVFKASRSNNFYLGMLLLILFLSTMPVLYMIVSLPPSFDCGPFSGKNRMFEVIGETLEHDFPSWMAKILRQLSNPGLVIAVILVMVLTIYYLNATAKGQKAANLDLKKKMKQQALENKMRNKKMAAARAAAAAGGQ

In experiment [1], “mouse Pz1 tagged with mClover3 (mPz1-mClover3), E2JF22 1-2547” returned a block by dihydrostreptomycin (DHS) of the mechanically activated current in N2A cells co-transfected with Pz1 and Tmc1, against Pz1 alone of 1000 fold. In addition, in experiment [2], the FRET efficiency (E) stood at 0.1.
